# Results: patent US6153580
# Molecular target: β-casein
substance,measurement,value
Hin47 Ser-197→alanine analog (enzyme),protease activity on the substrate β-casein,< 10%
